In paper PMC9825171 (Nucleic Acids Research, 2022):
One block for each binder: values may come before it.

Tests used:
Experiment in all cases: ITC
RBPJ (53–474) E260A [1] = target: T1, RBPJ (53–474) E260A (Mus musculus, UniProt P31266 53-474, E260A)
RBPJ (53–474) K275M = RBPJ (53–474) K275M (Mus musculus, UniProt P31266 53-474, K275M)
RBPJ (53–474) E260A [2] = target: T1, RBPJ (53–474) E260A; remark: listed apart in the source
RBPJ (53–474) E260K = RBPJ (53–474) E260K (Mus musculus, UniProt P31266 53-474, E260K)
Chain of RBPJ (53–474) E260K (P31266 53-474 E260K): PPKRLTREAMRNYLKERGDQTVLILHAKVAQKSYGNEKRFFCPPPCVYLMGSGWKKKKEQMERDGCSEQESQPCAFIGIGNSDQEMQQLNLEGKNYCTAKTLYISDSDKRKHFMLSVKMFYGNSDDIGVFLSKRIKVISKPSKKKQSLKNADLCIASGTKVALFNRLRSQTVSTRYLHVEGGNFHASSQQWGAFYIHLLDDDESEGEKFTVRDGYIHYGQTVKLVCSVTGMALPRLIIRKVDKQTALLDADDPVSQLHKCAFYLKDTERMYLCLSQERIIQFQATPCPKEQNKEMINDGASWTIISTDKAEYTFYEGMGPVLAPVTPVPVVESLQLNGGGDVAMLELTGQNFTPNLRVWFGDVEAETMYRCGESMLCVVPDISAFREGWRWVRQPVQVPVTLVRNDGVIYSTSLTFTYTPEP

RBPJ (53–474) Q333A = RBPJ (53–474) Q333A (Mus musculus, UniProt P31266 53-474, Q333A)
Chain of RBPJ (53–474) Q333A (P31266 53-474 Q333A): as the sequence (P31266 53-474 E260K) above, with K208E, Q281A counted along it

RBPJ (53–474) V263A = RBPJ (53–474) V263A (Mus musculus, UniProt P31266 53-474, V263A)
Chain of RBPJ (53–474) V263A (P31266 53-474 V263A): as the sequence (P31266 53-474 E260K) above, with K208E, V211A counted along it

[3] = target: T2, human L3MBTL3 fragment 1–523 (human, UniProt Q96JM7-2 1-523)
T2 sequence (looked up): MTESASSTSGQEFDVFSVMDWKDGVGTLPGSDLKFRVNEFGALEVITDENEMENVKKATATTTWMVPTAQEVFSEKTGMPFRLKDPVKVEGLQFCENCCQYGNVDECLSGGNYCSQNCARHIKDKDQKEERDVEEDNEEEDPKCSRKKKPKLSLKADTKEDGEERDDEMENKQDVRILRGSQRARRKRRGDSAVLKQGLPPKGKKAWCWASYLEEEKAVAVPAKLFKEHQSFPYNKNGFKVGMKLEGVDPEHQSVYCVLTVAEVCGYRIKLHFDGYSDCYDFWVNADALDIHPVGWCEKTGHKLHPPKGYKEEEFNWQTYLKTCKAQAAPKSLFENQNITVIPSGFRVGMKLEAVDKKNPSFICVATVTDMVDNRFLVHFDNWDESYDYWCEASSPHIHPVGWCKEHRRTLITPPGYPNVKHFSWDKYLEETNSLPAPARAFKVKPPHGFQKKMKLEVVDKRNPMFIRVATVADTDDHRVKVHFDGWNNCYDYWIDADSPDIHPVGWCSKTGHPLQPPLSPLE

T1 sequence (P31266 53-474 E260A): as the sequence (P31266 53-474 E260K) above, with K208A counted along it
Chain of RBPJ (53–474) K275M (P31266 53-474 K275M): as the sequence (P31266 53-474 E260K) above, with K208E, K223M counted along it

Kd (RBPJ (53–474) E260A [1]): 3730 nM | Ka (RBPJ (53–474) K275M): 240000 M⁻¹ | Kd (RBPJ (53–474) K275M): 4200 nM | dH (RBPJ (53–474) K275M): -13.7 kcal/mol | Ka (RBPJ (53–474) E260A [2]): 260000 M⁻¹ | dH (RBPJ (53–474) E260A [2]): -13.6 kcal/mol | Ka (RBPJ (53–474) E260K): 220000 M⁻¹ | dH (RBPJ (53–474) E260K): -16.8 kcal/mol | Ka (RBPJ (53–474) Q333A): 760000 M⁻¹ | Kd (RBPJ (53–474) Q333A): 1300 nM | dH (RBPJ (53–474) Q333A): -10.6 kcal/mol | Ka (RBPJ (53–474) V263A): 330000 M⁻¹ | Kd (RBPJ (53–474) V263A): 3000 nM | dH (RBPJ (53–474) V263A): -10.3 kcal/mol
B1: L3MBTL3 (52–70) wild-type peptide (19-mer) (peptide, UniProt Q96JM7-2 52-70, looked up)
peptide: MENVKKATATTTWMVPTAQ

Ka [3]: 540000 M⁻¹ | Kd [3]: 1900 nM
B2: Mus musculus CSL (RBPJ), residues 53–474 (structural core domain), wild type, as used for ITC (domain or fragment)
chain: not shown
